Results on 11 molecules are retold here after patent US20080045451A1, “Novel thymidylate synthase mutants” (priority 2000, published 2008).

A short description of data set [1]: Steady-state kinetic analysis of purified His-tagged TS proteins. Type of data set: biochemical, human. The settings on record: 25° C., dUMP 400 μM. The source says:
To subclone mutant TS fragments into the pH is vector (a modified pUC12 vector provided by A. Hizi), the TS cDNA was PCR-amplified by using HK-MUT5′ and TSXho3′ (5′-[…]-3′, SEQ ID NO: 4). After digestion with NdeI and XhoI, the amplified fragments were ligated into the NdeISalI digested pH is vector. The reconstructed plasmids were verified by both restriction analysis and DNA sequencing. Wild type and mutant TS proteins, as N-terminal hexahistidine fusions, were then purified by metal chelation chromatography on Ni^2+ affinity resin (His Bind resin and buffer kit, Novagen), as previously described, with minor modifications (see Landis, cited above). An overnight culture of χ2913 cells expressing the His-TS fusion protein was diluted 1:100 into 250 ml of 2×YT medium containing carbenicillin and thymidine. […] The concentration of purified TS was determined by using the Bradford assay.
TS activity was monitored spectrophotometrically by the increase in absorbance at 340 nm that occurs concomitant with the production of H2 folate (Δε=6400 M^−1 cm^−1). […] Steady-state kinetic parameters were derived by a nonlinear least squares fit of the data to the Michaelis Menten equation with KaleidaGraph 3.0 software (Abelbeck Software, Reading Pa.). […]

Data set [2] is described as follows: Inhibition constants (Ki) for 5-FdUMP from Dixon plot. The class given is biochemical, human. The settings on record: 25° C. On the procedure: TS activity was monitored spectrophotometrically by the increase in absorbance at 340 nm that occurs concomitant with the production of H2 folate (Δε=6400 M^−1 cm^−1). The reaction buffer contained 50 mM TES (pH 7.4), 25 mM NaCl, 6.5 mM formaldehyde, 1 mM EDTA and 150 μM 2-mercaptoethanol. When the concentration of dUMP was varied, a high concentration of (6R)—CH2H4 folate was added (3001200 mM of a racemic mixture); when the concentration of (6R)—CH2H4-folate was varied, the concentration of dUMP was 400 μM. Purified wild type or mutant TS protein was added to initiate the reaction at 25° C. Initial velocity measurements were obtained with a Perkin Elmer Lambda Bio 20 UV/VIS spectrophotometer. Steady-state kinetic parameters were derived by a nonlinear least squares fit of the data to the Michaelis Menten equation with KaleidaGraph 3.0 software (Abelbeck Software, Reading Pa.). […] Two dUMP concentrations (30 μM and 300 μM) were used, and FdUMP concentrations were varied. To initiate reactions, CH2H4-folate was added to yield a final concentration of 300 μM of the active isomer.

For another data set, the system named is E. coli χ2913 cells. As to the kind of experiment: Survival of TS-deficient E. coli χ2913 expressing wild type or mutant TS on M9 plates containing 5-FdUR. The class given is cell-based. The settings on record: for resistance to 5-FdUR (survival curves), in words: FIG. 3A-3C, single mutants made by site-directed mutagenesis; for 5-FdUR concentration at which colonies formed on minimal plates: side-by-side comparison, FIG. 3A, 200 nM clones did not grow at 250 nM. On the procedure: The resistance of each of the 41 mutants to 5-FdUR is expressed as fold enhancement in survival relative to wild type determined in parallel assays. All assays were carried out in duplicate at varying concentration of 5-FdUR and most comparison were repeated in two or more separate experiments. […] Only those experiments in which the survival of the wild type was lower than 1% were included in this tabulation. The percent survival of the wild type at the indicated concentrations of 5-FdUR is as follows: (a) 0.4% in 0.4 nM; (b) <0.1% in a 150 nM; (c) 0.1% at 150 nM; (d) 0 at 300 nM; (e) 0.5% at 150 nM; (f) 0 at 200 nM; (g) 0.95 at 150 nM.
E. coli χ2913 cells harboring plasmids with random substitutions encoding different amino acids, the TS library, were grown overnight at 37° C. in 2×YT medium containing 50 mg/ml of carbenicillin and 50 mg/ml thymidine. Cultures were diluted 1:100 in the same medium and grown at 37° C. until the OD600 reached 0.6 to 0.8. Aliquots (1 ml) of the exponentially growing cells were pelleted and resuspended in M9 salts and plated on three different media. On 1×YT containing […] of carbenicillin and supplemented with 50 mg/ml of thymidine, essentially all cells harboring the plasmid DNA should be recovered. On M9 plates containing carbenicillin, only cells expressing active TS proteins should grow because the medium lacks thymidine. Drug resistant clones were selected on M9 plates containing carbenicillin and increasing concentrations of 5FdUR essentially as previously described (Landis, D. M., Loeb, L. A., 1998, J. Biol. Chem. 273:25809-25817)
To isolate mutants that render E. coli χ2913 resistant to 5-FdUR, the TS library was plated on M9 minimal medium containing 200 or 300 nM 5-FdUR. […] Resistant colonies were selected and plasmid DNA was isolated and re-transformed into fresh χ2913 cells to confirm that the plasmid was the source of the drug-resistant phenotype.
To obtain a profile of amino acid replacements conferring resistance, the remaining, 3′-proximal third of the cDNA from each of the 33 mutants was sequenced. […] Resistance is recorded as percent survival relative to percent survival of host cells harboring wild type TS at 150 nM 5-FdUR of greater. Expression of TS in 10 of the resistant mutants was analyzed by Western blotting with antiserum directed against human TS. The level of expression of wild type TS was more than 2-fold greater than that of any of the mutants, estimated by visual inspection of the gel (data not shown). The mutant proteins may be more labile than the wild type or more susceptible to proteolytic degradation.

The next data set has as its system bacterial strain χ2913. As to the kind of experiment: Testing the 5-FU-resistance of TS-mutants: colonies of transfected χ2913 on 5-FdUR selection plates. Type of data set: cell-based. The settings on record: 200 nM 5-FdUR, FIG. 5. On the procedure:
The bacterial strain χ2913 was transfected with expressions vectors of the TS-mutants and defined amounts of bacteria in the exponential growth phase were plated on selection plates. The selection plates contained increasing concentrations of 5-fluorodeoxyuridine (0, 75, 150, 200, respectively 300 nM). 5-fluorodeoxyuridine (5-FdUR) is a very effective metabolite, which is generated from 5-fluorouracil in the cell. The selection plates were made of minimal medium, which contained carbenicilline and tetracycline. […] After 36 to 48 hours the number of growing colonies was determined. For this the number of colonies of bacteria, which were transfected with wild type thymidylate synthase was set as 100% and all other numbers of colonies were correspondingly converted to % values.

Numbering of substitutions follows the chain as printed. In names and notes the source's numbering stands. Several values for one entry are separate records, joined by “and”; a condition that tells them apart may be missing. Equal entries are not always repeated. Entries after “also recorded” stand apart in the source; their conditions may differ. A value given as a limit tells only on which side of the number the result lay.

B1: Mutant 302: human TS mutant, substitutions T53S, Y258F (protein, UniProt P04818 2-313, looked up, variant T53S Y258F)
Thymidylate synthase: PVAGSELPRRPLPPAAQERDAEPRPPHGELQYLGQIQHILRCGVRKDDRTGSGTLSVFGMQARYSLRDEFPLLTTKRVFWKGVLEELLWFIKGSTNAKELSSKGVKIWDANGSRDFLDSLGFSTREEGDLGPVYGFQWRHFGAEYRDMESDYSGQGVDQLQRVIDTIKTNPDDRRIIMCAWNPRDLPLMALPPCHALCQFYVVNSELSCQLYQRSGDMGLGVPFNIASYALLTYMIAHITGLKPGDFIHTLGDAHIFLNHIEPLKIQLQREPRPFPKLRILRKVEKIDDFKAEDFQIEGYNPHPTIKMEMAV
For B1, the “Km for CH2H4-folate, fold higher than wild type TS” value in data set [1] is listed as “approximately 10 fold”. Moreover, the “Ki for 5-FdUMP, increase over wild type TS” value (“Ki for 5-FdUMP, increase” for short) in data set [2] is listed as 6 fold. The “Survival Mutant/WT (fold enhancement in survival relative to wild type)” value in the data set on E. coli χ2913 cells ((g) wild type survival 0.95 at 150 nM 5-FdUR) stood at 220 fold. In the data set with E. coli χ2913 cells, the “resistance to 5-FdUR (survival curves), in words” value (“resistance to 5-FdUR” for short) is “as resistant or more resistant to elevated concentrations of 5-FdUR than any clone tested” and the “5-FdUR concentration at which colonies formed on minimal plates” value is 250 nM.

B2: T51S;G52S (protein)
chain: MPVAGSELPRRPLPPAAQERDAEPRPPHGELQYLGQIQHILRCGVRKDDRSSTGTLSVFGMQARYSLRDEFPLLTTKRVFWKGVLEELLWFIKGSTNAKELSSKGVKIWDANGSRDFLDSLGFSTREEGDLGPVYGFQWRHFGAEYRDMESDYSGQGVDQLQRVIDTIKTNPDDRRIIMCAWNPRDLPLMALPPCHALCQFYVVNSELSCQLYQRSGDMGLGVPFNIASYALLTYMIAHITGLKPGDFIHTLGDAHIYLNHIEPLKIQLQREPRPFPKLRILRKVEKIDDFKAEDFQIEGYNPHPTIKMEMAV
B2: in the data set on E. coli χ2913 cells, the “5-FdUR concentration at which colonies formed on minimal plates” value is 200 nM.

B3: T53S (protein)
chain: B2 chain with S51T, S52G, T53S
Turning to B3, the “resistance to 5-FdUR” value in the data set on E. coli χ2913 cells is recorded as “less resistant than the double mutant, but more resistant than wild type TS; also recorded: less resistant than Y258F”.

B4: wild type TS: wild type human thymidylate synthase (SEQ ID NO: 7) (protein, listed as Homo sapiens)
chain: B2 chain with S51T, S52G
Turning to B4, the “survival rate of bacteria transfected with TS expression vector” value in the data set on bacterial strain χ2913 is “no wild type TSWT survived”. Also, the “percent survival of the wild type” value with E. coli χ2913 cells (0.4 nM 5-FdUR) is 0.4%; with E. coli χ2913 cells (150 nM 5-FdUR, separate experiments (b), (c), (e), (g)), < 0.1% and 0.1% and 0.5% and 0.95%; in the data set on E. coli χ2913 cells (200 nM 5-FdUR), 0%; in the data set on E. coli χ2913 cells (300 nM 5-FdUR) it was 0%.

B5: T51S: human TS single mutant T51S (protein)
chain: B2 chain with S52G
B5: the “Ki for 5-FdUMP, increase” value in data set [2] was 11 fold.

B6: M219V (protein)
chain: B2 chain with S51T, S52G, M219V
Consider B6, for which the “resistance to 5-FdUR” value with E. coli χ2913 cells is on record as “yield resistance”.

B7: Y258F: human TS single mutant Y258F made by site-directed mutagenesis (protein)
chain: B2 chain with S51T, S52G, Y258F
As for B7, the “Ki for 5-FdUMP, increase” value in data set [2] was 3.1 fold. Also, in the data set with E. coli χ2913 cells, the “resistance to 5-FdUR” value is recorded as “less resistant than the double mutant, but more resistant than wild type TS”.

B8: D254A (protein)
chain: B2 chain with S51T, S52G, D254A
As to B8, the “resistance to 5-FdUR” value with E. coli χ2913 cells is listed as “higher resistance than wild type TS”.

B9: D116A (protein)
chain: B2 chain with S51T, S52G, D116A
Consider B9, for which the “resistance to 5-FdUR” value in the data set with E. coli χ2913 cells was “yield resistance”.

B10: D254N (protein)
chain: B2 chain with S51T, S52G, D254N
Consider B10, for which the “resistance to 5-FdUR” value in the data set with E. coli χ2913 cells is given as “higher resistance than wild type TS”.

B11: D254E (protein)
chain: B2 chain with S51T, S52G, D254E
Take B11: the “survival rate of bacteria transfected with TS expression vector” value in the data set on bacterial strain χ2913 was 80%. In addition, in the data set on E. coli χ2913 cells, the “resistance to 5-FdUR” value was “higher resistance than wild type TS”.
